Tests used:
[1] = target: T1, thermolysin from B. thermoproteolyticus Rokko (Bacillus thermoproteolyticus Rokko, UniProt P00800 233-548); test: cell-based or functional assay
T1 sequence (looked up): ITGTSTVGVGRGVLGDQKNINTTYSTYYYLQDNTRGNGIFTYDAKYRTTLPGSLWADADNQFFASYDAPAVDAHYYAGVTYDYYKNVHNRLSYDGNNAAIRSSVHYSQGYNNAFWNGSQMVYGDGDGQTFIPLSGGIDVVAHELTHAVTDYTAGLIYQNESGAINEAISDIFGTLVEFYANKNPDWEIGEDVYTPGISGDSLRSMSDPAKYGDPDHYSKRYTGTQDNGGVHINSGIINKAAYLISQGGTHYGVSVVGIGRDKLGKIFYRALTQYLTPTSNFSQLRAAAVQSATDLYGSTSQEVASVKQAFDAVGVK

[2] = target: T2, aureolysin isoform I, mature catalytic domain (A209–E509) (Staphylococcus aureus (strain V8-BC10), UniProt P81177 209-509); test: enzyme inhibition assay
T2 sequence (looked up): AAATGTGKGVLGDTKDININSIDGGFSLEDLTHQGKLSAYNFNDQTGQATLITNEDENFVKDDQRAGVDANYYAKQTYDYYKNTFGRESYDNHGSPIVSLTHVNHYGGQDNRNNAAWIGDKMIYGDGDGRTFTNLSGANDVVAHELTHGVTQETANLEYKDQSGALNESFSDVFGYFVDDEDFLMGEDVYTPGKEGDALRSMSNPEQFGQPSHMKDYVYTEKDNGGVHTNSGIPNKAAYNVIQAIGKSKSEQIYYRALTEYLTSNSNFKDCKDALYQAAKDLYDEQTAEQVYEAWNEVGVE

B1: R58E-IMPI (natural protein, Galleria mellonella)
chain: GMSIVLICNGGHEYYECGGACDNVCADLHIQNKTNCPIINIECNDKCYCEDGYARDVNGKCIPIKDCPKIRS
inhibition of thermolysin, against the wild type [1]: ~200 fold

B2: I57F-IMPI (natural protein, Galleria mellonella)
chain: GMSIVLICNGGHEYYECGGACDNVCADLHIQNKTNCPIINFRCNDKCYCEDGYARDVNGKCIPIKDCPKIRS
Ki [2]: 346 nM

— article PMC9002140 (Computational and Structural Biotechnology Journal, 2022)
